{
  "source": "paper PMC9482650",
  "about": "“Quantitative fragmentomics allow affinity mapping of interactomes” (Nature Communications, 2022)",
  "data": [
    {"target": "T1, SNTG2, Q9NY99", "T1 sequence (Q9NY99 68-166, limits assumed, looked up)": "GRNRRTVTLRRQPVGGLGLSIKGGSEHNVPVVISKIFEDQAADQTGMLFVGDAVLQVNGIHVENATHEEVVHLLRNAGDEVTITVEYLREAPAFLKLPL", "assay": "holdup assay", "parameters": "key: below the threshold = too weak to quantify, mostly under pKd 3.1 to 4", "settings": "modified: phospho on T at position -2 from the C-terminal residue", "values": [
      {"binder": "SRSRRRETAL", "note": "[HPV33-E6_-2P, P06427]", "pKd": "below the threshold"}
    ]},
    {"target": "T1, SNTG2, Q9NY99", "assay": "holdup assay", "parameters": "key: below the threshold = too weak to quantify, mostly under pKd 3.1 to 4", "settings": "plain residues with an end cap or a label only (N-terminal biotin on a linker: ado-ado)", "values": [
      {"binder": "KIEDVEITLV", "note": "[FCHSD2, O94868]", "pKd": 3.58},
      {"binder": "LVEEEEPMNL", "note": "[HDAC7, Q8WUI4]", "pKd": "below the threshold"},
      {"binder": "KAEEKPPSKV", "note": "[SCN4B, Q8IWT1]", "pKd": "below the threshold"},
      {"binder": "VCMGDHWFDV", "note": "[PRKN, O60260]", "pKd": "below the threshold"},
      {"binder": "THHRKIHTRV", "note": "[ZNF599, Q96NL3]", "pKd": 4.13},
      {"binder": "HLSTRQGTCV", "note": "[ATRNL1, Q5VV63]", "pKd": 3.67},
      {"binder": "PLATCDETSI", "note": "[SEMA4F, O95754]", "pKd": 4.55},
      {"binder": "DFKHTKSFII", "note": "[JAM2, P57087]", "pKd": "below the threshold"},
      {"binder": "NNMAFETTHF", "note": "[SLC5A12, Q1EHB4]", "pKd": "below the threshold"},
      {"binder": "EPAKETTTNV", "note": "[SLC2A3, P11169]", "pKd": 4.03},
      {"binder": "FLVTEFNVML", "note": "[DFNB31, Q9P202]", "pKd": "below the threshold"},
      {"binder": "PLPPEEESWV", "note": "[GAS2L2, Q8NHY3]", "pKd": 4.24},
      {"binder": "GTMFLRETSL", "note": "[GUCY1A2, P33402]", "pKd": 5.27},
      {"binder": "GVHSNDHSVV", "note": "[LPAR1, Q92633]", "pKd": "below the threshold"},
      {"binder": "IQISELETNV", "note": "[SLC1A7, O00341]", "pKd": 4.91},
      {"binder": "YAEKRMLTEV", "note": "[KCNA6, P17658]", "pKd": "below the threshold"},
      {"binder": "GNDPDRGTSI", "note": "[GRID2, O43424]", "pKd": "below the threshold"},
      {"binder": "KKTPVSRSHL", "note": "[SLC22A3, O75751]", "pKd": 3.48},
      {"binder": "NISARRFTLC", "note": "[FAM167B, Q9BTA0]", "pKd": "below the threshold"},
      {"binder": "HYPASPDSWV", "note": "[CTNND2, Q9UQB3]", "pKd": 3.72},
      {"binder": "KLQNPNQSVV", "note": "[TYRP1, P17643]", "pKd": 3.64},
      {"binder": "PGKKPEDSRV", "note": "[SLCO2B1, O94956]", "pKd": 3.83},
      {"binder": "AKADAQESRL", "note": "[PLCB2, Q00722]", "pKd": 4.81},
      {"binder": "TKEIPNCTSV", "note": "[SORCS3, Q9UPU3]", "pKd": 3.84},
      {"binder": "TNSKQGETTV", "note": "[FZD1, Q9UP38]", "pKd": 4.16},
      {"binder": "NTALVESEDL", "note": "[PALLS, Q8WX93;Q8WX93-1]", "pKd": "below the threshold"},
      {"binder": "QQGLLPHSSC", "note": "[TYRO3, Q06418]", "pKd": "below the threshold"},
      {"binder": "KEKASTETEC", "note": "[TRPM1, Q7Z4N2]", "pKd": "below the threshold"},
      {"binder": "PKSNSSKEYV", "note": "[CLDN7, O95471]", "pKd": "below the threshold"},
      {"binder": "WAKEKQHTRL", "note": "[SLC17A1, Q14916]", "pKd": 4.15},
      {"binder": "FVFESRKEIL", "note": "[TBPL1, P62380]", "pKd": "below the threshold"},
      {"binder": "LLQEEWETVM", "note": "[PTH1R, Q03431]", "pKd": 3.95},
      {"binder": "QLKSGRDSTV", "note": "[TMEM178A, Q8NBL3]", "pKd": 3.77},
      {"binder": "DYSNLRETDI", "note": "[ADRA1D, P25100]", "pKd": 5.05},
      {"binder": "PSDSVGKDVF", "note": "[EGLN1, Q9GZT9]", "pKd": "below the threshold"},
      {"binder": "QKNKDREYYV", "note": "[NRXN3, Q9HDB5]", "pKd": 3.5},
      {"binder": "SAGADSETHC", "note": "[SLCO1B1, Q9Y6L6]", "pKd": 3.61},
      {"binder": "QKASRNESTF", "note": "[POLR1D, P0DPB6]", "pKd": "below the threshold"},
      {"binder": "AHGSTRDQSI", "note": "[KCNB1, Q14721]", "pKd": "below the threshold"},
      {"binder": "ADEMICITTL", "note": "[CACNA1D, Q01668]", "pKd": 4.47},
      {"binder": "SGDGKTSVWI", "note": "[GJC1, P36383]", "pKd": "below the threshold"},
      {"binder": "TFSRRPKTRV", "note": "[CD226, Q15762]", "pKd": 3.55},
      {"binder": "PAALPESTHM", "note": "[SLC9A3, P48764]", "pKd": "below the threshold"},
      {"binder": "RDYTQSSSSL", "note": "[GRM5, P41594]", "pKd": "below the threshold"},
      {"binder": "THREVKFTSL", "note": "[CD46, P15529]", "pKd": 4.05},
      {"binder": "RGKNRRQSIF", "note": "[CDK18, Q07002]", "pKd": "below the threshold"},
      {"binder": "STYCDYTIEI", "note": "[FAM71C, Q8NEG0]", "pKd": "below the threshold"},
      {"binder": "GQNMTVSVVI", "note": "[PRLHR, P49683]", "pKd": "below the threshold"},
      {"binder": "PALKNGQYWV", "note": "[CSPG4, Q6UVK1]", "pKd": "below the threshold"},
      {"binder": "NSTHNLKDYV", "note": "[CLDN20, P56880]", "pKd": "below the threshold"},
      {"binder": "MLPANYVEAI", "note": "[NEB, P20929]", "pKd": "below the threshold"},
      {"binder": "SKQFDKNAYV", "note": "[CLDN10, P78369]", "pKd": "below the threshold"},
      {"binder": "DLLGGGSDSI", "note": "[TNRC6B, Q9UPQ9]", "pKd": "below the threshold"},
      {"binder": "VYEVPVETKF", "note": "[SLC26A3, P40879]", "pKd": "below the threshold"},
      {"binder": "QRYPGNQTTC", "note": "[CCL24, O00175]", "pKd": "below the threshold"},
      {"binder": "KSRPENGTVC", "note": "[TMEM178B, H3BS89]", "pKd": "below the threshold"},
      {"binder": "EFKQTSSFLV", "note": "[JAM1, Q9Y624]", "pKd": "below the threshold"},
      {"binder": "KPDKQEEFYA", "note": "[SDC3, O75056]", "pKd": "below the threshold"},
      {"binder": "RSPVATATSC", "note": "[DUSP5, Q16690]", "pKd": "below the threshold"},
      {"binder": "VISSDDLTEL", "note": "[CAPN6, Q9Y6Q1]", "pKd": "below the threshold"},
      {"binder": "TKDKVQETQI", "note": "[LRRC4, Q9HBW1]", "pKd": 5.1},
      {"binder": "PEKVSNTTVV", "note": "[IGSF5, Q9NSI5]", "pKd": 3.76},
      {"binder": "SQPLLVHDDV", "note": "[KIT, P10721]", "pKd": "below the threshold"},
      {"binder": "EAVTVESTSL", "note": "[SLC22A11, Q9NSA0]", "pKd": 3.64},
      {"binder": "MQILSKPEFI", "note": "[NPSR1, Q6W5P4]", "pKd": "below the threshold"},
      {"binder": "DSEEELPTRL", "note": "[GRK6, P43250]", "pKd": 3.57},
      {"binder": "HDDYFYHDEL", "note": "[RCN2, Q14257]", "pKd": "below the threshold"},
      {"binder": "LPPPESESKV", "note": "[KCNJ9, Q92806]", "pKd": 3.74},
      {"binder": "NKSEPFLTWL", "note": "[WWTR1, Q9GZV5]", "pKd": "below the threshold"},
      {"binder": "SSSVNVSSNL", "note": "[CXCR1, P25024]", "pKd": "below the threshold"},
      {"binder": "IKLETKKTKL", "note": "[SLC15A2, Q16348]", "pKd": 3.62}
    ]}
  ]
}
